{"source": "paper PMC11252482", "about": "(Acta Pharmaceutica Sinica. B, 2024)", "target": "His-PKM2, purified recombinant (UniProt P14618-1 1-531)", "sequence (P14618 whole entry)": "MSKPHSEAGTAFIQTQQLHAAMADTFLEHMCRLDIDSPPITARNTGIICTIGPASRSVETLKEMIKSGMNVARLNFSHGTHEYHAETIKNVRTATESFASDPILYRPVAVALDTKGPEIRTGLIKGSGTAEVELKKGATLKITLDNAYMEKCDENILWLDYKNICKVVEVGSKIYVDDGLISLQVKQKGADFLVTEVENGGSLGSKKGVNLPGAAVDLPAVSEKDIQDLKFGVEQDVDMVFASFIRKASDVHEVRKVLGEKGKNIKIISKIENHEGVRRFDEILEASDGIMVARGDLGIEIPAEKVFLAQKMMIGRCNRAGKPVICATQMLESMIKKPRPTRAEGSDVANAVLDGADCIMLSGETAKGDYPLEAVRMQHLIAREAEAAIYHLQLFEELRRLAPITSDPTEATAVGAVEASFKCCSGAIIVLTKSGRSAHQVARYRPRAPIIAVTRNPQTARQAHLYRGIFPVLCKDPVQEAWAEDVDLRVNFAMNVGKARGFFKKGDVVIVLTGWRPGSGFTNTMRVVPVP", "assay": "pull-down"}
{"binder": "GST-KHK-A (enzyme) MEEKQILCVGLVVLDVISLVDKYPKEDSEIRCLSQRWQRGGNASNSCTVLSLLGAPCAFMGSMAPGHVADFVLDDLRRYSVDLRYTVFQTTGSVPIATVIINEASGSRTILYYDRSLPDVSATDFEKVDLTQFKWIHIEGRNASEQVKMLQRIDAHNTRQPPEQKIRVSVEVEKPREELFQLFGYGDVVFVSKDVAKHLGFQSAEEALRGLYGRVRKGAVLVCAWAEEGADALGPDGKLLHSDAFPPPRVVDTLGAGDTFNASVIFSLSQGRSVQEALRFGCQVAGKKCGLQGFDGIV", "values": [{"measurement": "binding result", "value": "binds"}]}
{"binder": "GST-KHK-A G257R (enzyme) MEEKQILCVGLVVLDVISLVDKYPKEDSEIRCLSQRWQRGGNASNSCTVLSLLGAPCAFMGSMAPGHVADFVLDDLRRYSVDLRYTVFQTTGSVPIATVIINEASGSRTILYYDRSLPDVSATDFEKVDLTQFKWIHIEGRNASEQVKMLQRIDAHNTRQPPEQKIRVSVEVEKPREELFQLFGYGDVVFVSKDVAKHLGFQSAEEALRGLYGRVRKGAVLVCAWAEEGADALGPDGKLLHSDAFPPPRVVDTLGARDTFNASVIFSLSQGRSVQEALRFGCQVAGKKCGLQGFDGIV", "values": [{"measurement": "binding result", "value": "binds"}]}
